Earlier results in US12150974B2, “Conjugates with inhibitory receptor ligands to induce anergy in insulin-binding B cells” (University of Kansas, priority 2021, dated 2024).

Molecular target: T1, CD20 (Homo sapiens, UniProt P11836)
T1 construct: host or cells: B cells of trial patients (endogenous)
T1 sequence (P11836 1-297): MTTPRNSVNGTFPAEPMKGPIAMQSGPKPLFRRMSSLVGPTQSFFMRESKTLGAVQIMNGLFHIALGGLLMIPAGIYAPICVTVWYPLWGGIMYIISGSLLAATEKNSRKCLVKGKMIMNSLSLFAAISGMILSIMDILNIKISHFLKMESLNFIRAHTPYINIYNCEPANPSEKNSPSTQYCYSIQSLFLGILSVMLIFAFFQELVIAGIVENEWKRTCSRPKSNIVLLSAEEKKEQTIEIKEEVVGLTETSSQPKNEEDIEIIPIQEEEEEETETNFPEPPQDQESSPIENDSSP
Conditions: at 1 year

clinical outcome in T1D: beta cell preservation
Substance: rituximab
